Results published in the nanobody polyreactivity screen of Harvey et al. (2022).

Assay: yeast display, Sf9 membrane polyspecificity reagent, FACS + sequencing; frameworks hold sequencing errors
How it was run: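 Polyreactivity labels are assigned by the sorting gate from which each nanobody was recovered. The gates were low and high (top ~1%), set on anti-HA fluorescence for expression and streptavidin fluorescence for reagent binding. Before sorting, galactose-induced (36–48 hours) yeast display cells were stained for 1 hour at 4 °C with 10% biotinylated, detergent-solubilized Sf9 membrane reagent.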

## QVQLVESGGGLVQAGGSLRLSCAASGSIFVKYAMGWYRQAPGKERELVAAISRSGTRTYYADSVKGRFTISRDNAKNTVYLQMNSLKPEDTAVYYCAAAATTVRAYEYWGQGTQVTLSS
  polyreactivity (PSR sort gate): high polyreactivity

## QYQLVESGGGLVQAGGSLSLSCAASATTFSAYAMGWYRQAPGKERELVAAISASGGSTYYADSVKGRFTISRDNAKNTVYLQMNSLKPEDNAVYFCNADRWKYELDYCGQGTQVTVSS
  polyreactivity (PSR sort gate): high polyreactivity

## QVQLVESGGGLVQAGGSLRLSCAASGSTFWFYAMGWYRQAPGKERELVAANSRSSGSTYYADSVKGRFTISRDNAKNTVYLQMNSLKPEDTAVFSCAAVEPDRDYGYWGQGTQVTVSS
  polyreactivity (PSR sort gate): low polyreactivity

## QVQLVESGGGLVQAGGSLRLSCAASGSIFGYYGMGWYRQAPGKERELVAAISYRGGYTYYADSVKGRFTISRDNAKNTVSLQMNSLKPEDTAVYYCNAGGRRRIFAHSSTGDYWGQGTQVTVSS
  polyreactivity (PSR sort gate): high polyreactivity

## QVQLVESGGGLVQAGGSLRLSCAASGLTFNVNPIVWYRQAPGKEREMVARITTSGGSTSYADSVKGRFTISRDNAKNTVYLQMNSLKPEDSAVYYCAADRARYYSEYDYWGQGTQVTVSS
  polyreactivity (PSR sort gate): low polyreactivity

## QVQRVESGGGLVQAGGSLRLSCAASGANFSRYAMGWYRPAPGKERELVAAITSGGSTNYADSVKGRFTISRDNAKNTVYLQMTSLKPEDTAVYYCNKRYVVYPGNYWRYDYWGQGTQVTVSS
  polyreactivity (PSR sort gate): high polyreactivity

## QVQLVESGRGLVQAGGSLRLSCAASGSIFWYYAMGWYRPSPGKETELVAAIRRGGSTTYADSVKGRFTISRDNAKNTVYLQMNSLKPEDTAVYYCAAEPYYWYRGDYWGQGTQVTVSS
  polyreactivity (PSR sort gate): high polyreactivity

## QVQLVESRGGLVQAGGSLRLSCAASGSIFRSYAMGWYRQAPGKERELVAAIRGSDGNTYYADSVKGRFTISRDNPKNTVYLQMNSLKPEDTAVYYCAADGCLVDDSATRLYYWGQGTQVTVSS
  polyreactivity (PSR sort gate): high polyreactivity

## QVQLVESGGGLVQAGGSLRLSCAASGSIFVHNTMGWYRQAPGKERELVAAITRSVGRTYYADSVKGRFTISRDNAKNTVYLQMNSLKPEDTAVYYCAARKNYGSRLSYEYWGQGTQVTVSS
  polyreactivity (PSR sort gate): high polyreactivity

## QVQLVESGGGLVQAGGSLRLSCAASGITSRLYAMGWYRQAPGKERELVAAINSIDGSTNYADSVKGRFTISRDNAKNTVYLQMNSLKPEDTAVYYCNKRYGYTGFSPRYDYWGQGTQVTVSS
  polyreactivity (PSR sort gate): low polyreactivity

## QVQLVESGGGLVQAGGSLRLSCAASGFIFIYNAMGWYRQAPGKERELVAAISRSGGSTYYADSVKGRFTISRDNAKNTVYLHMNSLKPEDTAVYYCNARPGSRYYGYRLYYYWGQGTQVTVSS
  polyreactivity (PSR sort gate): high polyreactivity

## QVQLVESGGGLVQAGGSLRLSCAASGRTFFVYAMGWYRQAPGKERELVASIRWRGSTYYADSVKGRFTISRDNAKNTVYLKMNSLKPEDTAVYYCAARYPYELGFDYWGQGTQVTVSS
  polyreactivity (PSR sort gate): low polyreactivity

## QVQLVESGGGLVQAGGSLRLSCAASGRIFYRYAMGWYRQAPGKEMELVASITRSGITHYADSVKGRFTISRDNAKNTVYLQKNSLKPEDTEVYYCNARRGSPAPYDYWGQGTQVTVSS
  polyreactivity (PSR sort gate): high polyreactivity

## QVQLVESGGGLVQARGSLRLSCAASGRIFKYNAMGWYRQAPGKESELVAAISGGGSTNYADSVKGRFTISRDNAKNTVYLLMNSLKPEDTAVYYCAKGYRRVYGPFYYWGQGTQVTVSS
  polyreactivity (PSR sort gate): low polyreactivity

## QVQLVESGGGLVQAGGSLRLSCAASGLIFSRYTMGWNRQAPGKERELVAAISRSGTNTYYADSVKGRFTISRDNAKNTVYLQMNSLKPEDTAVYYCAARGYYRDYDSWGQGTQVTVSS
  polyreactivity (PSR sort gate): high polyreactivity

## QVQLVESGGCLVQAGGSLRLSCAASGSTFGYNTMGWYRQAPGKERELDAAITGTGRTNYADSVKGRFTISRDNAKNNVYLQMYSLKPEDTAVYYCNARQAGTRYKYGYYGRYYWGHGTQVTVSS
  polyreactivity (PSR sort gate): high polyreactivity

## QVQLVESGGGLVQAGGSLRLSSAASGSILYVYAMGWYRQAPGKERELVAVITSGGSTNYADSVKGRFTISRDNAKNTVYLQMNSLKPEDTAVYYCAADPYSVYGGDYWGQGTQVTVSS
  polyreactivity (PSR sort gate): low polyreactivity

## QVQLVESGGGLDQAGGSLRLSCAASGSIFAYAMPLYRQAPGKERELVASISTSTDITYADSVKGRFTISRDNAMNSVYFLMNSLKPEDTAVYYCAATYWQWWGWYDYWGEGTQVTVSS
  polyreactivity (PSR sort gate): high polyreactivity

## QVQLVESGGGLVQAGGSLRLSCAASGRTFRYYAMGWYRQAPGKERELVAAITSGGSTYYADSVKGRFTISRDNAKNTVYLQMNSLKPEDTAVYYCAAVPAGLWATYPQFRYGYWGQGTQVTVSS
  polyreactivity (PSR sort gate): high polyreactivity

## QVQLVESGGGLVQAGGSLRLSCAASGSTFDGNTMGWYRQAPGKERELVAAISGSGGSTYYADSVKGRFTISRDNAKKTVYLQMNSLKPEDTAVYYCAARRIHTTSSRGYYWGQGTQVTVSS
  polyreactivity (PSR sort gate): high polyreactivity

## QVQLVESGGGLVQAGGSLRLSCAASGFIFSSNAMGWYRQAPGKERELVAGITASGVSTYYADSVKGRFTISRDNAKNTVYLQMNSLKPEDTAVYYCAALGLYYYFYSQYIDWDDYWGQGTQVTVSS
  polyreactivity (PSR sort gate): low polyreactivity

## QVQLVESGGGLVQAGGSLRLSCAASGFTFYSYVIGWYRQAPGKERELVAAITRGGSTYYADSVKGRFTISRDNAKNTVYLQMNSLKPEDTAVYYCAKRPSYGYNYWGQGTQVTVSS
  polyreactivity (PSR sort gate): low polyreactivity

## QVQLVESGGGLVQAGGSLRLSCAASGSTFFSNAMGRYRQAPGKERELVAAISWSGGSTYYADSVKGRFTISRDNAKNTVYLKLNSLKPEDTAVYYCGADYYGYWYDFEGDHWGQGTQVTVSS
  polyreactivity (PSR sort gate): low polyreactivity

## PVQLVESGGGLVQAGGSLRLSCAASGSNFEYYTMGWYRQAPGKERELVATISRSADRTYYADSVKGRFTISRDYAKNTVYLQMNILKPEDTAVYDCAKLYPRTTQWIYDYWGQGTQVTVSS
  polyreactivity (PSR sort gate): high polyreactivity

## QVQLVESGGGLVQAGGSLRLSCAASGSIFYPYAMGWYRQAPGKERELVAAIRRSGTTYYADSVKGRFTISRDNAKNTVYLQMNSLKPEDTAVYYCNKVRGQEPSNYDYWGQGTQVTVSS
  polyreactivity (PSR sort gate): low polyreactivity

## QVQLVESGGGLVQAGGRLRLSCAASGSTFATYAMGWYRQAPGKERELVAVISRSGGSTYYADSVKGRFTISRDNAKNTVYLQMNCLKPEDTAVYYCAARPRGKYDYRGQGTQVTVSS
  polyreactivity (PSR sort gate): high polyreactivity

## QVQLVESGGGLVQAGGSLRLSCAASGSTFEPNGMGWYRQAPGKETELVAVITSGRTNYADSVKGSFTISRDNAKNTVYLQMNSLKPEDTAVYYCNAEGNGIYDYWGQGTQVTVSS
  polyreactivity (PSR sort gate): low polyreactivity

## QVQLVESGGVLVQAGGSLRLSCAASGRLFSRYTMGWYRQAPGKERELVAAIRNTGSTNYADSVKGRFTISRDNAKNTVYLQMNSLKPEDTAVYYCNARTAYVAYHYYYPQRMDYWGQGTQVTVSS
  polyreactivity (PSR sort gate): high polyreactivity

## QVQLVESGGGLVQAGGSLRLSCAASGRTIQYYTMGWYRQAPGKERELVAGITYRGSSTYYADSVKGRFTISRDNAKNTVYLQMNSLKPEDTAVYYCAAGYWAYVWYYYWGQGTQVTVSS
  polyreactivity (PSR sort gate): high polyreactivity

## QVQLVESGGGLVQAGDSLRLSCAASGSIFAWKTKGWYRQAPGTERELVAAISSGDSTYYADSVKGRFTISRDNAKNPVYLQMNSLKPEDTAVYYCAATYYQDRRRGYWGQGTQVTVSS
  polyreactivity (PSR sort gate): high polyreactivity

## QVQLVESGGGLVQAGGSLRLSCAASGRIIYINAMGWYRQAPGKERELVAAISSDGNTNYADSVKGRFTISRDNAKNTVYLQMNSLKPEDTAVYYCNADVWFYYTFDYWGLGTQVTVSS
  polyreactivity (PSR sort gate): low polyreactivity

## QVQLVESGGGLVQAGGSLRLSCAASGNAMGWYRQAPGKERELVASINRSGGRTYYADSVKGRFTISRDNAKNTVYLQMISLKPEDTAVYYCGARPHYDSDYWGQGTQVTVSS
  polyreactivity (PSR sort gate): low polyreactivity

## QVQLVESGGGLVQAGGSLRLSCAASGRIFYKNVMVWYRQAPGKERELVAAISTSTGRTYYADSVKGRFTISRDNAKNTVYLEMNSLKPEDTAVYYCNAVRGHTNGVLYRYDYWGQGTQVTVSS
  polyreactivity (PSR sort gate): high polyreactivity

## QDHLVESGGGLVQAGGSLRLSCAASGRIFSYYVMGWYRQAPGKERELVAAITSGCSTNYADSVKGRFTISRDNAKNNVYLQMNSLKPEDTAVYYFNRAYTYINRLYGYWGQGTQVTVSS
  polyreactivity (PSR sort gate): high polyreactivity

## QVQLVESWGGLVQAGGSHRLSCAASGRTFGIYAMGWYRQAPGKERELVATISWRGGSTYYADSVKGRFTISRDNAKNTVYLQMNSLKPEDTAVYYCAAGYYPYWGQGTQVTVSS
  polyreactivity (PSR sort gate): low polyreactivity

## QVQLVESGGGLVQAGGSLRLSCAASGFIFGSYAMGWYRQAPGKERELVAAISDSGDSTYYADSVKGRYTISRDNAKNTVYLQMNSLKPEDTAVYYCNRGYRWRRCENYYWGQGTQVTVSS
  polyreactivity (PSR sort gate): high polyreactivity

## QVQLVESGGGLVQAGGSLRLSCAASGITFTFNAMGWYRQAPGKERELVAAISSTTSTKYADSVKGRFTISRDNAKTTVYLQMNSLKPEDTAVYYCARTYWLRYYGYRDDEYDYWGQGTQVTVSS
  polyreactivity (PSR sort gate): low polyreactivity

## QVQLVESGGGLVQAGGSLRLSCAPSGRILRGYAMGWYRQAPGKDRELVAAISRRGGSTRYADSVKGRFTISRDNAKNTVYLQMNSLKPEDTAVYYCAPRYHPWCYDYWGQGTQVTVSS
  polyreactivity (PSR sort gate): high polyreactivity

## QVHLQESGGLVQAGGLRLSCAASGSVSYHEAMGWYRQAPAKERELVATISFGANTNYADSVKGRFTISRDNAKHTVYLHMNSLKPEDTAVYYCAAESLFDDYYGYWGQGTQVTVSS
  polyreactivity (PSR sort gate): low polyreactivity

## QVQLVESRGGLVQAGGSLRISCAASGSTFVAYAMGWYRQAPAKERELVAAISYSGGSTYYADSVKGRFTISRDYAKNTVSLQMNCLKPEDTAVYYCAAEWSRHYYYGPRYDYWGQGTQVSVSS
  polyreactivity (PSR sort gate): low polyreactivity

## QVQHVESGGGLVQAGGSLRLSCAASGFTFYGNALGWYRQAPGKERELVAAITSGGSTYYADSVKGRFTISRDNAKNTVYLQMNSLKPDDTAVYYCAADEVLYGYEYWGQGTQVTVSS
  polyreactivity (PSR sort gate): low polyreactivity

## QVQLVESGGGLVQAGGSLRLSCAASGRTYTYAMGWYRQAPGKERELVAGISRRGGNTYYADSVKGRFTISRDNAKNTVYLQMNSLKPEDTAVYYCAAVSFSASSYTYEYWGQGTQVTVSS
  polyreactivity (PSR sort gate): high polyreactivity

## QVQLVESGGGLVQAGGSLRLSCAASGSTFGSNAMGGYRKAPGKERELVAAISTSGGSTYYADSVKGRFTISRDNAKNTVYLQMNSLKPEDTAVYYCNVDPAYSITYKGDYWGQGTQVSVSS
  polyreactivity (PSR sort gate): low polyreactivity
